Source: US20230212587A1, “Mutant Hydroxyphenylpyruvate Dioxygenase Polypeptide, Encoding Gene Thereof and Use Therefor” (Beijing Dabeinong Biotechnology Co., Ltd., priority 2019, published 2023)

Test system: Arabidopsis thaliana T1 plants
Assay: Topramezone tolerance of transgenic Arabidopsis thaliana T1 plants (pesticide damage grade by bleached leaf area, score, resistance evaluation)
Format: in vivo
Conditions: HPPD F372V mutants, Table 7
How it was run: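 Herbicide tolerance was judged per plant on a bleaching scale (grade 0 no bleaching to grade 3 fully bleached) 7 DAT. Topramezone doses were 0, 25, 50 and 100 g ai/ha on 18-day-old T1 and wild-type plants.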

B1: N1HPPDm-F372V: Sphingobium sp. N1 HPPD mutant F372V, SEQ ID NO: 389 (protein)
chain: MAADSENPLGLHGFAFAEFTSPDPAAMARQFEQLGFVPAARRKDRGLTLYRQGRIAFILNAGEGEQASAFRAAHGPSANGMAFNVADAKAAHRHAIQSGATDADTAQSALPGTYAIEGIGDSLLYLVDSDPFADWDEVPGWREASAERGVGLDLLDHLTHNVRRGQMRVWSEFYATLFGFEEQKFFDIKGQATGLFSQAMIAPDHEIRIPLNESQDDNSQIEEFIREYNGEGIQHLALTTPDIYSTVEKLRANGVRLQDTIDTYYDLVDERVPGHGEDLARLRKNRILIDGDVHDEGLLLQIVTETMFGPIFFEIIQRKGNEGFGNGNFQVLYESIELDQIRRGVVTVDA
modifications: N1HPPDm-F372V Amino Acid Sequence
- Resistance evaluation (topramezone 25 g ai/ha (1x)): Highly resistant
- Resistance evaluation (topramezone 100 g ai/ha (4x)): Highly resistant

B2: N5HPPDm-F372V: Sphingobium sp. N5 HPPD mutant F372V, SEQ ID NO: 397 (protein)
chain: MAADSENPLGLHGFAFAEFTSPDPAAMARQFEQLGFVPAARRKDRGLTLYRQGRIAFILNAGEGEQASAFRAAHGPSANGMAFNVADAKAAHRHAIQSGATDADTAQSALPGTYAIEGIGDSLLYLVDSDPFADWDEVPGWREASAERGVGLDLLDHLTHNVRRGQMRVWSEFYATLFGFEEQKFFDIKGQATGLFSQAMIAPDHEIRIPLNESQDDNSQIEEFIREYNGEGIQHLALTTPDIYSTVEKLRANGVRLQDTIDTYYDLVDERVPGHGEDLARLRKNRILIDGDVHDEGLLLQIVTETMFGPIFFEIIQRKGNEGFGNGNFQVLFESIELDQIRRGVVTVDA
modifications: N5HPPDm-F372V Amino Acid Sequence
- Resistance evaluation (topramezone 25 g ai/ha (1x)): Highly resistant
- Resistance evaluation (topramezone 100 g ai/ha (4x)): Highly resistant

B3: ZmHPPDm-F372V: Zea mays HPPD mutant F372V, SEQ ID NO: 347 (protein)
chain: MPPTPTAAAAGAAVAAASAAEQAAFRLVGHRNFVRFNPRSDRFHTLAFHHVELWCADAASAAGRFSFGLGAPLAARSDLSTGNSAHASLLLRSGSLSFLFTAPYAHGADAATAALPSFSAAAARRFAADHGLAVRAVALRVADAEEAFRTSVAAGARPAFGPVDLGRGFRLAEVELYGDVVLRYVSYPDGAAGEPFLPGFEGVASPGAADYGLSRFDHIVGNVPELAPAAAYFAGFTGFHEFAEFTTEDVGTAESGLNSMVLANNSENVLLPLNEPVHGTKRRSQIQTFLDHHGGPGVQHMALASDDVLRTLREMQARSAMGGFEFMAPPTSDYYDGVRRRAGDVLTEAQIKECQELGVLVDRDDQGVLLQIVPKPVGDRPTLFLEIIQRIGCMERDEKGQEYQKGGCGGFGKGNFSQLFKSIEDYEKSLEAMQAAAAATAQGS
modifications: ZmHPPDm-F372V Amino Acid Sequence
- Resistance evaluation (topramezone 25 g ai/ha (1x)): Highly resistant
- Resistance evaluation (topramezone 100 g ai/ha (4x)): Poorly resistant

B4: SlHPPDm-F372V (protein)
chain: MGKQAAAAADDQQLPGDIEDKFKLVGFNHFVRTNPRSDFFTVKRFHHIEFWCGDATNTARRFSWGLGLPIAAISDLSTGNSVHASYLLRSSSSSQLQFLFTAPYSSAISTSSSASIPTFSVSSHRSFTATHGLGVRAIALEVENSRLAFSTCVAHGAKPVSEPVILNDEVVIAEVHLYGDVVLRFVSFLKDSNCFVFLPGFESVEGAQLDYGIRRLDHAVGNVPELGPVVEYIKSFTGFHEFAEFTAEDVGTAESGLNSVVLANNDETVLFPLNEPVYGTKRKSQIQTYLEHNEGAGVQHLALVTEDIFRTLREMRKRSGIGGFEFMPSPPPTYYKNLKTRAGDILSDEQIQECEELGILVDRDDQGTLLQIVTKPVGDRPTIFLEIIQRIGCMLKNEEGELYQKGGCGGFGKGNFSELFKSIEEYEKTLEAKQNTQVAIA
modifications: SlHPPDm-F372V Amino Acid Sequence
- Resistance evaluation (topramezone 25 g ai/ha (1x)): Poorly resistant
- Resistance evaluation (topramezone 100 g ai/ha (4x)): Non-resistant

B5: AhHPPDm-F372V: Arachis hypogaea HPPD mutant F372V, SEQ ID NO: 385 (protein)
chain: MATAYTYAHAVTYCNSQHNPPIIPILSTNQHPPRVTLPSSIPHFISTITTFNLKHFPSHSLHTVMVTQTQQNAPSSSPELGFKLVGFKNFVRTNPKSDRFKVIRFHHVEFWCTDATNTASRFSWGLGMPIVAKSDLSTGNAVHASYLLRSGDLNFLFSAPYSASIAGDGASASFPSFSASDCHSFAAKHGLAVRAVAIEVEDASAAFSASVANGAKPVSPAVLLDNSVGFAEVHLYGDVVLRYISYSAPTRESNLNPTLRFLPGFEAVEADSSFPELDYGIRRLDHAVGNVPELAPAVNYLKKFTGFHEFAEFTAEDVGTSESGLNSVVLASNDEMVLLPLNEPVYGTKRKSQIETYLEHNEGAGLQHLALVSEDIFRTLREMRKRSTIGGFQFMPSPPPTYYRNLKKRAGDVLSDEQIKECEELGILVDRDDQGTLLQIVTKPVGDRPTIFIEIIQRIGCMLKDEEGKVYQKGGCGGFGKGNFSELFKSIEEYEKTLESRRTA
modifications: AhHPPDm-F372V Amino Acid Sequence
- Resistance evaluation (topramezone 25 g ai/ha (1x)): Poorly resistant
- Resistance evaluation (topramezone 100 g ai/ha (4x)): Non-resistant

B6: CyHPPDm-F372V: Cyanobacteria HPPD mutant F372V, SEQ ID NO: 387 (protein)
chain: MEFDYLHLYVDDYQSAHRCYQRQWGFTCVNKIITDQGITGIYQQGQILLLISASESSLSRYADYLQKHPPGVGEVAWQVANWQKIQHQLSELQIETTPVIHPLTKAEGLTFLLWGDVHHSIYPVRSELNQNKTLHGVGLTTIDHVVLNIAADQFTQASQWYQQVFGWSVQQSFTVNTPHSGLYSEALASANGKVQFNLNCPTNNSSQIQTFLANNHGAGIQHVAFSTTSITRTVAHLRERGVNFLKIPTGYYQQQRNSSYFNYASLDWDTLQCLEILLDDQDNTGERLLLQIVSQPCYGVGTLFWEIIERRHRAKGFGQGNFQALYEAVETLEKQLEVP
modifications: CyHPPDm-F372V Amino Acid Sequence
- Resistance evaluation (topramezone 25 g ai/ha (1x)): Poorly resistant
- Resistance evaluation (topramezone 100 g ai/ha (4x)): Non-resistant

B7: StHPPDm-F372V: Solanum tuberosum HPPD mutant F372V, SEQ ID NO: 381 (protein)
chain: MGKQAATATATATATADDQQLPADIEDKYKLVGFNNFVRTNPRSDLFNVKRFHHIEFWCGDATNTARRFSWGLGLPIAAKSDLSTGNSVHASYLLRSSSSQLQFLFTAPYSPAISTPSSSSIPTFSVSSHRSFTETHGLGVRAIALEVENSRLAFSTCVSHGAKPVSEPVILNDEVVISEVHLYGDVVLRFVSFLKDSNRFVFLPGFELVEGAQLDYGIRRLDHAVGNVPQLGPVVEYIKSFTGFHEFAEFTAEDVGTAESGLNSVVLANNDETVLFPLNEPVYGTKRKSQIQTYLEHNEGAGVQHLALVTEDIFRTLREMRKRSGIGGFEFMPSPPPTYYKNLKSRAGDILSDEQIKECEELGILVDRDDQGTLLQIVTKPVGDRPTIFLEIIQRIGCMLQNAEGELYQKGGCGGFGKGNFSELFKSIEEYEKTLEAKQNTQVAIA
modifications: StHPPDm-F372V Amino Acid Sequence
- Resistance evaluation (topramezone 25 g ai/ha (1x)): Poorly resistant
- Resistance evaluation (topramezone 100 g ai/ha (4x)): Non-resistant

B8: N2HPPDm-F372V: Sphingobium sp. N2 HPPD mutant F372V, SEQ ID NO: 391 (protein)
chain: MTLFDNPLGLDGFEFVEFSAPAKGMLEPVFAAMGFVMIARHRSKDVQLWRQGGINLIANYEPRSPAAYFAAEHGPSACGMGWRVRNAAKAYELAVERGAEPVDVKTGPMELRLPAIRGIGGSIIYLIDRYEDEDGGLSIYDIDFVYEPGVDRHPEGAGFKIIDHLTHNVYGGRMAHWASFYERVFGFREIRYFDIKGEYTGLTSKAMTAPDGKIRIPLNEEGKAGGGQIEEFLRAYNGEGIQHIAFLCDDLIAAWDKLKALGTPLMTAPPATYYEMLDERLPGHGEPVAELQKRGILLDGSTQQGDPRLLLQIVGQATIGPVFFEFIQRKKDEGFGEGNFTALFESMERDQLRRGTLNAGESA
modifications: N2HPPDm-F372V Amino Acid Sequence
- Resistance evaluation (topramezone 25 g ai/ha (1x)): Highly resistant
- Resistance evaluation (topramezone 100 g ai/ha (4x)): Highly resistant

B9: N3HPPDm-F372V: Burkholderia sp. N3 HPPD mutant F372V, SEQ ID NO: 393 (protein)
chain: MQIPNWENPVGTDGFEFIEYTAPDPKALGQLFERMGFTAIARHRHKDVTVYRQGDINFIINAEPHSFAQRFARLHGPSICAIAFRVQDAAKAYQHALELGAWGFDNKTGPMELNIPAIKGIGDSLIYFVDRWRGKNGAQPGAIGDISIYDVDFEPIAGANPNPAGHGLTYIDHLTHNVHRGRMQEWAEFYERLFNFREVRYFDIEGKVTGVKSKAMTSPCGKIRIPINEEGSDTAGQIQEYLDAYHGEGIQHIALGTNDIYGAVDGLRGKEVKLLDTIDTYYELVDRRVPDHGESLDELKKRKILIDGARDDLLLQIVTENQIGPIFFEIIQRKGNQGFGEGNFKALFESIELDQIRRGVVQDKA
modifications: N3HPPDm-F372V Amino Acid Sequence
- Resistance evaluation (topramezone 25 g ai/ha (1x)): Highly resistant
- Resistance evaluation (topramezone 100 g ai/ha (4x)): Highly resistant

B10: N4HPPDm-F372V: Burkholderia sp. N4 HPPD mutant F372V, SEQ ID NO: 395 (protein)
chain: MQIPNWENPVGTDGFEFIEYTAPDPKALGQLFERMGFTAIARHRHKDVTVYRQGDINFIINAEPDSFAQRFARLHGPSICAIAFRVQDAAKAYQHALELGAWGFDNKTGPMELNIPAIKGIGDSLIYFVDRWRGKNGAQPGAIGDISIYDVDFEPIAGATPNPAGHGLTYIDHLTHNVHRGRMQEWAEFYERLFNFREVRYFDIEGKVTGVKSKAMTSPCGKIRIPINEEGSDTAGQIQEYLDAYHGEGIQHIALGTSDIYGAVDGLRGKEVKLLDTIDTYYELVDRRVPDHGESLDELKKRKILIDGARDDLLLQIVTENQIGPIFFEIIQRKGNQGFGEGTFKALFESIELDQIRRGVVQDKA
modifications: N4HPPDm-F372V Amino Acid Sequence
- Resistance evaluation (topramezone 25 g ai/ha (1x)): Highly resistant
- Resistance evaluation (topramezone 100 g ai/ha (4x)): Highly resistant
